Experimental data from article PMC9543391, “ERp57 chaperon protein protects neuronal cells from Aβ‐induced toxicity” (Journal of Neurochemistry, 2022).
Each block holds one molecule with its values, some of them ahead of it. Peptide text beside a SMILES is read from it.

Experiments:
[1] = test system: tau; parameters: method as in Xu et al., [2013]; conditions: within the cell; ref Xu et al., [2013]; cited from earlier work
[2] = target: T1, ERp57 (Homo sapiens, UniProt P30101); assay: Surface plasmon resonance, Aβ25−35 binding to immobilized ERp57; conditions: SPR, ERp57 on COOH5 sensorchip; global fitting with one binding site; non-aggregated Aβ25−35 15.6 μM–1.0 mM; HBSP buffer pH 7.4; 25°C; read-out: overall K D
T1 construct: made in house; host or cells: E. coli BL21, vector pET21
T1 sequence (P30101 25-505): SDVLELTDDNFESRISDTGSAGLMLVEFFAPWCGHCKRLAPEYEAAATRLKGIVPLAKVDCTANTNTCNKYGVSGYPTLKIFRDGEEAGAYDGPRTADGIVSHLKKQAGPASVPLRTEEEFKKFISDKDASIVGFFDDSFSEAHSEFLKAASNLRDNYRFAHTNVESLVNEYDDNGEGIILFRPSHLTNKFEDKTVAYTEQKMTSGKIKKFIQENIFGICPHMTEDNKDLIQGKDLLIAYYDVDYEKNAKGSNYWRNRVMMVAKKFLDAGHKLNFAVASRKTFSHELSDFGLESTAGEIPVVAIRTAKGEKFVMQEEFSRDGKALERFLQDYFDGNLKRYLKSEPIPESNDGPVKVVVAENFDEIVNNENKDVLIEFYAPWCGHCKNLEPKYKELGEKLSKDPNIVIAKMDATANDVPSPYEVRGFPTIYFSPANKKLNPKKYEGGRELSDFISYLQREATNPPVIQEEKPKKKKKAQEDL
From the text: Human recombinant PDIA3 was cloned and expressed in E. coli strain BL21 (Invitrogen™, catalog number C600003) using the expression vector pET21 (Novagen, catalog number 69770) as described by Coppari (Coppari et al., [2002]). The coding sequence for the second redox‐active domain (aʹ domain, residues 377–505) was amplified by PCR as previously described and cloned in the expression vector pET29 (Novagen) (Grillo et al., [2002]). Recombinant proteins were expressed in E. coli strain BL21 and purified by ammonium sulfate fractionation, ion exchange, and heparin chromatography (Grillo et al., [2006]). Protein purification was evaluated by SDS‐PAGE and concentration was determined spectrophotometrically (PDIA3 Ɛ280 reduced form = 44 810 M^−1 cm^−1, aʹ domain Ɛ280 reduced form = 14 400 M^−1 cm^−1). Rabbit anti‐ERp57 primary antibody will be shared upon reasonable request.
SPR experiments were performed with a SensiQ Pioneer apparatus. […] The amount of immobilized ERp57 was detected by mass concentration‐dependent changes in the refractive index on the sensorchip surface and corresponded to about 4000 resonance units (RU). […] Values of the plateau signal at steady‐state (Req) and full fittings with 1, 2, and 3 sites were calculated from kinetic evaluation of the sensorgrams using the Qdat 4.0 program.

[3] = test system: SH‐SY5Y cells; assay: MTT cell viability assay; type: cell-based, human; conditions: Aβ25−35 aggregated with ERp57
Procedure: For the cell viability experiments, 96‐well plates were seeded with 10 000 cells/well. After 24 h, cells were treated with 30 μM Aβ25−35 aggregated for 72 h in the presence or in the absence of 0.12 μM of ERp57 or GST recombinant proteins (in a 1:250 ratio), in a final volume of 150 μl per well. Plates were incubated for 24 h in an incubator at 37°C, 5% of CO2, and 99% RH. Thereafter, 20 μl of (3‐[4,5‐Dimethylthiazol‐2‐yl]‐2,5‐Diphenyltetrazolium Bromide) (MTT) dye (stock solution 5 mg/ml in PBS) (catalog number #M2003) was added to the wells and incubated for additional 2 h at 37°C and 5% CO2. Water‐insoluble formazan crystals were dissolved in 100 μl of DMSO (catalog number #472301). For spectrophotometric measurements, Appliscan® plate reader (Thermo scientific) was used at the wavelength 570 nm, with reference set at 690 nm.

[4] = target: ERp57 (human recombinant PDIA3) (human) (UniProt P30101); assay: SPR; ERp57 immobilised by amine coupling on a COOH5 sensorchip (about 4000 RU), SensiQ Pioneer; non-aggregated Aβ25-35 injected for 240 s at 30 μl/min at 15.6 μM to 1.0 mM; 25°C; HBSP buffer (20 mM HEPES pH 7.4, 150 mM NaCl, 0.005% Tween-20); global kinetic fits with one or two binding sites (Qdat 4.0)
[5] = test system: AD 5XFAD mice model; conditions: activation of ERp57, cerebral cortex and hippocampus, ref Tohda et al., [2012]; cited from earlier work
From the text: ERp57 has been previously linked to key processes in neurodegeneration and particularly in AD pathogenesis.

Molecule: PDI: protein disulfide isomerase
effect on tau fibril formation [1]: able to reduce the formation of tau fibrils

Kd [2]: 33 ± 2 µM
Molecule: CC[C@H](C)[C@H](NC(=O)[C@H](C)NC(=O)CNC(=O)[C@H](CCCCN)NC(=O)[C@H](CC(N)=O)NC(=O)[C@H](CO)NC(=O)CN)C(=O)N[C@H](C(=O)NCC(=O)N[C@@H](CC(C)C)C(=O)N[C@@H](CCSC)C(=O)O)[C@@H](C)CC [Aβ25−35] (H-GSNKGAIIGLM-OH)
toxicity of Aβ25−35 bound by ERp57 [3]: no longer leads to toxicity

KD1 (fit with two binding sites, high-affinity site) [4]: 34 µM
KD2 (fit with two binding sites, low-affinity site) [4]: 3.3 mM
Molecule: Amyloid beta peptide fragment 25-35 (Aβ25-35)

Molecule: C[C@@H]1CC[C@@]2(OC1)O[C@H]1C[C@H]3[C@@H]4CC=C5C[C@@H](O)CC[C@]5(C)[C@H]4CC[C@]3(C)[C@H]1[C@@H]2C [diosgenin]
object recognition memory; amyloid plaques and neurofibrillary tangles [5]: significantly improves performance of object recognition memory and reduces amyloid plaques and neurofibrillary tangles
